According to patent publication US20230009539:

System: Purified recombinant SF2

Recombinant IKKi
in vitro kinase assay: IKKi indeed was able to phosphorylate SF2 in vitro
